{
  "source": "paper PMC8373988",
  "about": "(2021)",
  "binders": {"B1": {"name": "isolated TPR domain of FICD (domain or fragment)", "chain": "LEARAALNQALEMKRQGKREKAQKLFMHALKMDPDFVDALTEFGIFSEEDKDIIQADYLYTRALTISPYH"}},
  "target": "biotinylated-AviTag-haBiP^T229A-V461F (residues 27–635), unmodified (Chinese hamster, UniProt G3I8R9 27-635, T229A | V461F, biotin on the N-terminal Avi-tag)",
  "sequence (G3I8R9 27-635 T229A/V461F)": "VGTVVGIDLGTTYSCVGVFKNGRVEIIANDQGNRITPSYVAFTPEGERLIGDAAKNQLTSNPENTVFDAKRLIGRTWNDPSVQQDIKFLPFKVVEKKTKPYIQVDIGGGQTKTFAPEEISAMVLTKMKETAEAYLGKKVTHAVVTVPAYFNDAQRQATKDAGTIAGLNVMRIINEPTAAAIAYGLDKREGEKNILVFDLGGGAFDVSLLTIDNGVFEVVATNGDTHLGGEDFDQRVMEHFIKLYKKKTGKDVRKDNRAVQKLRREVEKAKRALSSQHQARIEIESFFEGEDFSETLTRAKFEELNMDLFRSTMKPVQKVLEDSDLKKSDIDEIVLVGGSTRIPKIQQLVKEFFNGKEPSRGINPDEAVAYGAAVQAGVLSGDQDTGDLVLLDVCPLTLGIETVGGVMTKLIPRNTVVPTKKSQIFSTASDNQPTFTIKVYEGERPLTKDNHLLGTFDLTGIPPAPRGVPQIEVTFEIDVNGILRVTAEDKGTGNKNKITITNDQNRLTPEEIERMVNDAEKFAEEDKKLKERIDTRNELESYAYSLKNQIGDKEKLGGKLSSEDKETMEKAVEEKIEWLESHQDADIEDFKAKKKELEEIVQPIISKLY",
  "assay": "BLI; ATP-bound BiP",
  "data": [
    {"binder": "B1", "values": [
      {"measurement": "koff", "result": 0.176, "unit": "s⁻¹"}
    ]}
  ]
}
